Patent publication US20190345246A1 (TYMPOBIO, published 2019)
One block for each binder: values may come before it.

Experiments:
recombinant human IL-1β [1] = biological target: T1, recombinant human IL-1β (human, UniProt P01584 117-269); assay: cell-based or functional assay
recombinant canine IL-1β = biological target: T2, recombinant canine IL-1β (canine, UniProt Q28292 115-266, limits assumed); assay: cross-reactivity table (Table 2), direct ELISA; text: no detectable binding to canine IL-1β
T2 construct: also called Canine rIL-1β
T2 sequence (looked up): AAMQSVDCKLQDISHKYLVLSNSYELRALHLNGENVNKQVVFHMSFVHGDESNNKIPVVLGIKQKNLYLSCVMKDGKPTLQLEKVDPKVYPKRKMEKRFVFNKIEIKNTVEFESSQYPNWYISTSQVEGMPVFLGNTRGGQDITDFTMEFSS
Description: Recombinant human IL-1β 1 mg/ml was diluted with the coating buffer to a final concentration of 2 μg/ml. 50 μl was added to the designated wells. Canine IL-1β, porcine/swine IL-1β, guinea pig IL-1β, human IL-1ra and human IL-6 were diluted in the coating buffer and added to distinct wells on the plates. Plates were incubated overnight at 4° C. […] The bound scFvs and control antibodies were detected with Protein L-Peroxidase L-HRP (1:3000), rabbit anti-goat HRP (1:5000) and streptavidin HRP (1:3000).

recombinant human IL-1β [2] = biological target: T1, recombinant human IL-1β; assay: cell-based or functional assay; remark: listed apart in the source
Rhesus monkey rIL-1β = biological target: T3, Rhesus monkey rIL-1β (rhesus monkey, UniProt P48090 117-269); assay: cross-reactivity table (direct ELISA)
T3 construct: also called rhesus macaque IL-1β; rhesus IL-1β
Description: (§1) Plate wells were coated with each protein and incubated overnight at 4° C.

Cynomolgus rIL-1β = biological target: T4, Cynomolgus rIL-1β (cynomolgus, UniProt P79182 117-268, limits assumed); assay: cross-reactivity table (direct ELISA)
T4 construct: also called cynomolgus IL-1β
Description: as §1

recombinant human IL-1β [3] = biological target: T1, recombinant human IL-1β; assay: Kinetic Exclusion Assay (KinExA, Sapidyne)
Description: Kd is a specific type of equilibrium constant that measures the propensity of a larger object to separate (dissociate) reversibly into smaller components. A Kd analysis requires immobilization of one interaction partner (the […] binding partner) to a solid phase which is then used as a probe to capture the other interaction partner. For each experiment, one of the binding partners is titrated in a background of the captured binding partner (CBP) and allowed to reach equilibrium. The solutions are then briefly exposed to the solid phase and a portion of free CBP is captured. The captured CBP is then labelled with a fluorescent secondary molecule. The signals generated from CBP are used to calculate the Kd value which is directly proportional to the concentration of free CBP in the equilibrated sample.

recombinant human IL-1β [4] = biological target: T1, recombinant human IL-1β; assay: cell-based or functional assay; remark: listed apart in the source

T4 sequence (P79182 117-268 limits assumed): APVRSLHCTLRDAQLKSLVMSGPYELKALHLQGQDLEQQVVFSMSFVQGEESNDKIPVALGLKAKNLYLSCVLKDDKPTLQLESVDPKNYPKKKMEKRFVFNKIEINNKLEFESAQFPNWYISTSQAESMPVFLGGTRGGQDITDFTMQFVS
T3 sequence (P48090 117-269 limits assumed): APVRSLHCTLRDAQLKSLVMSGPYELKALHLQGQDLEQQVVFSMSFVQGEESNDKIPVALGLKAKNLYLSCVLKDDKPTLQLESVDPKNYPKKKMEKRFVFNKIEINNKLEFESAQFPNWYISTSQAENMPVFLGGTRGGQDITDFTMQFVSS

- IC50, inhibition of IL-1β-induced IL-6 release from normal human dermal fibroblasts (IL-6 ELISA) (recombinant human IL-1β [1]): 3 pM
- potency relative to IL-1RA, inhibition of IL-1β-induced IL-6 release (recombinant human IL-1β [1]): 10 fold
- binding result (recombinant canine IL-1β): no binding
- IC50 (column head of Table 2) (recombinant human IL-1β [2]): 2 to 3 pM
- binding result (Rhesus monkey rIL-1β): binds
- binding result (Cynomolgus rIL-1β): binds
- Kd (recombinant human IL-1β [3]): 0.756 pM
- koff (recombinant human IL-1β [3]): 5.7e-06 s⁻¹
- kon (recombinant human IL-1β [3]): 7.55e+06 M⁻¹ s⁻¹
B1: DLX-2323 (scFv)
scFv: EIVMTQSPSTLSASVGDRVIITCQASQSIDNWLSWYQQKPGKAPKLLIYRASTLASGVPSRFSGSGSGAEFTLTISSLQPDDFATYYCQNTGGGVSIAFGQGTKLTVLGGGGGSGGGGSGGGGSGGGGSEVQLVESGGGLVQPGGSLRLSCTASGFSLSSAAMAWVRQAPGKGLEWVGIIYDSASTYYASWAKGRFTISRDTSKNTVYLQMNSLRAEDTAVYYCARERAIFSGDFVLWGQGTLVTVSS
notes: Humanized single chain antibody fragment expressed in E. coli (inclusion bodies)

- IC50 (read off the curve), inhibition of rhIL-1β-induced IL-6 release from human dermal fibroblasts (recombinant human IL-1β [4]): ~60 pM
B2: canakinumab (antibody, V domains shown)
VH: QVQLVESGGGVVQPGRSLRLSCAASGFTFSVYGMNWVRQAPGKGLEWVAIIWYDGDNQYYADSVKGRFTISRDNSKNTLYLQMNGLRAEDTAVYYCARDLRTGPFDYWGQGTLVTVSS
VL: EIVLTQSPDFQSVTPKEKVTITCRASQSIGSSLHWYQQKPDQSPKLLIKYASQSFSGVPSRFSGSGSGTDFTLTINSLEAEDAAAYYCHQSSSLPFTFGPGTKVDIKR
